Where two headings read alike, the source gives them in different places. Where no end group is shown, it is not given here.
T1: mam sCRFR2α (mouse soluble CRF receptor type 2α, amino acids 1-143 with a FLAG epitope following amino acid 143, purified from COS M6 cell media) (mouse)
T1 chain: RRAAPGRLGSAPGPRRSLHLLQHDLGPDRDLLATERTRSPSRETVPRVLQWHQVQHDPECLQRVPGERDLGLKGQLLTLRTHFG


Assays:
Experiment in all cases: radioreceptor assay, displacement of [125I-DTyr0]-astressin from purified sCRFR2α
[1] = target: bact sCRFR2α (mouse soluble CRF receptor type 2α, amino acids 20-143, purified from E. coli) (mouse)
[2] = target: mam sCRFR2α (mouse soluble CRF receptor type 2α, amino acids 1-143 with a FLAG epitope following amino acid 143, purified from COS M6 cell media) (mouse)
[3] = target: T1, mam sCRFR2α (mouse soluble CRF receptor …)

| Ki [1] [nM] | Ki [2] [nM] | Ki [3] [nM] | Binder |
| --- | --- | --- | --- |
| 5.8 | 6.6 |  | DDPPLSIDLTFHLLRTLLELARTQSQRERAEQNRIIFDSV (peptide, UniProt P55090 81-120, looked up) [rUcn1 (urocortin 1)] |
|  |  | 6.7 | FHLLREVLEMARAEQLAQEAHKNRKLMEII (modifications not checked) [Astressin] |
| 14.8 | 23 |  | SEEPPISLDLTFHLLREVLEMARAEQLAQQAHSNRKLMEII (ends and bridges not checked) [corticotropin releasing factor (CRF)] |
| 116 | 113 |  | VILSLDVPIGLLRILLEQARYKAARNQAATNAQILAHV (peptide, UniProt Q99ML8 73-110, looked up) [mUcn2 (urocortin 2)] |
